Measurements published in publication PMC6082141.

Legend:
[1] = target: carboxypeptidase A (CPA)-treated microtubules from porcine brain tubulin (porcine) (UniProt P02550); assay: TIRF microscopy, fluorescence intensity on MTs
[2] = target: microtubules assembled from porcine brain tubulin (porcine) (UniProt P02550); assay: TIRF microscopy, fluorescence intensity on MTs
[3] = target: microtubules assembled from porcine brain tubulin (porcine) (UniProt P02550); assay: TIRF microscopy, MT-MT sliding assay
[4] = target: microtubules assembled from porcine brain tubulin (porcine) (UniProt P02550); assay: single-molecule TIRF microscopy

Row | Substance | integrated p150 intensity on the MT (minus background, per pixel) [1] | integrated p150 intensity on the MT (minus background, per pixel) [2] | lifetime (τ) of foci of two MT minus-ends brought into contact and held by DDB [3] | dwell time at MT minus-ends, long population (τ2) [4] | percent of incoming molecules that dwell at MT minus-ends with DDB clusters [4] | percent of incoming molecules that dwell at bare (vacant) MT minus-ends [4]
1 | TMR-labeled p150-SNAP (from UniProt Q14203-1 1-1278) (natural protein) | 1100 a.u. | 2950 a.u. | – | – | – | –
2 | dynein-dynactin-BicD2 co-complex (DDB) (from UniProt Q921C5 1-820; P38650 1-4644; P28023 1-1280) | – | – | 14.4 s | 54.8 s | 83% | 77%
